The values that follow come from patent US10583167B2, “Mammalian glucosidase inhibitors, methods for their use and pharmaceutical compositions thereof” (THE UNIVERSITY OF BRITISH COLUMBIA, priority 2015, dated 2020).

One data set deals with T1, mammalian alpha-amylase (Homo sapiens, UniProt P04746).
T1 sequence (P04746 16-511): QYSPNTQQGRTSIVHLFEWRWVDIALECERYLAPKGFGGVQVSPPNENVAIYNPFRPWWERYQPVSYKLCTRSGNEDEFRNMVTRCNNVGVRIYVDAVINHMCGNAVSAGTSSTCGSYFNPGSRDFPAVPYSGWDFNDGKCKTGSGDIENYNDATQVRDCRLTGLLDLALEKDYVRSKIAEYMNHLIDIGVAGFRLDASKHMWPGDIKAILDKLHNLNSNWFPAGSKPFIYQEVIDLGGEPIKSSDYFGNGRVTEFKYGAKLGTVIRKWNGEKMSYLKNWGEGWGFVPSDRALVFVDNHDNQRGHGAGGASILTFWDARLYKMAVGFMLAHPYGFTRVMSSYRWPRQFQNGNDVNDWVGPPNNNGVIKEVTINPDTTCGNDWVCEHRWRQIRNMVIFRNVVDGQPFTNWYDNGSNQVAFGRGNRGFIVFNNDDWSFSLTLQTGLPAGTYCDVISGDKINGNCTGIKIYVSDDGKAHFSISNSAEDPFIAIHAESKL
Put plainly: Inhibitory activity of truncated and fusion peptides. Type of data set: biochemical. As to conditions: for Inhibitory Activity: truncated peptides.

Data set [1] deals with T2, human pancreatic α-amylase (HPA) (Homo sapiens, UniProt P04746).
T2 construct: made in house; host or cells: Pichia pastoris
T2 sequence (P04746 16-511): T1 sequence (P04746 16-511)
Description: Kinetic analysis of HPA inhibition (CNP-G3 hydrolysis, Morrison / Michaelis-Menten). Type of data set: biochemical. The settings on record: for Ki / inhibition constant estimated in preliminary tests: preliminary inhibitory studies with remaining material. Here is the method: A detailed protocol of this expression can be found in the work done by Rydberg et al. (39) Expression was carried out in Pichia pastoris. Colonies were grown in 600 mL BMGY media at 30° C. 200 RPM. 20 mL of the overnight culture was added to 600 mL BMGY. After 16 hours the cells were transferred to 300 mL BMMY. After one day 2 mL of 50% methanol was added. The culture was left overnight. The culture supernatant was collected and purified via Phenyl Sepharose™ and Hitrap Q™ columns. Deglycosylation was performed with EndoF™.
Reactions were run with a final [CNPG3]=5 mM. […] Kiapp was then used to calculate Ki.
Given the low-nM estimate of Ki for the natural extract, kinetic analysis could not be pursued through standard Michaelis-Menten kinetics (22). In this study, inhibition constants below 50 nM were determined using the Morrison method: inhibition dose response curves at [S]=KM were constructed for varying enzyme concentrations (23, 24). The resulting data (FIG. 2A) was fit to the Morrison equation 1 to determine Ki,app, which could be converted to Ki through equation 2, which is the relationship between these values for competitive inhibition.

The next data set has as its target Almond β-glucosidase. Description: Inhibitory specificity: kinetic analysis. Type of data set: biochemical. As to conditions: up to 1 μM. As for the experimental part: (§1) Assays were performed on a Varian Cary 300™ UV/Vis spectrophotometer. The release of 2-chloro-nitrophenol resulting from the amylase catalyzed hydrolysis of 2-chloro-p-nitrophenyl-α-D-maltotrioside was monitored at 400 nm. Reactions were run at 30° C. in 50 mM sodium phosphate, 100 mM sodium chloride (pH 7.0). Reactions were monitored over 5 minutes to measure the initial reaction rate. […] Reactions were run with a final [CNPG3]=5 mM. […] Up to 5 different enzyme concentrations were used, ranging from 1 nM to 10 nM. v/vo was plotted against [I] for each enzyme concentration to form a series of dose response curves. […] Kiapp was then used to calculate Ki. […] Details of this process can be found in the work done by Tarling et al. (33). After kinetic analysis with HPA, nine additional enzymes were tested against helianthamide. Concentrations of up to 1 μM of Helianthamide were used to assess for inhibition.
(§2) Inhibition of nine other glycosidases was explored (TABLE 4).

Data set [2] concerns the target Bacillus licheniformis α-amylase (Bacillus licheniformis, UniProt P06278). Description: Inhibitory specificity: kinetic analysis. Type of data set: biochemical. The settings on record: up to 1 μM. As for the experimental part:
as §1, §2

In data set [3] the target is Bovine liver β-galactosidase. Description: Inhibitory specificity: kinetic analysis. The data set is classed as biochemical. The settings on record: up to 1 μM. As for the experimental part: as §1, §2
Data set [4] has as its target Brewer's yeast α-glucosidase. Put plainly: Inhibitory specificity: kinetic analysis. Type of data set: biochemical. The settings on record: up to 1 μM. Here is the method: as §1, §2
In data set [5] the target is Butyrivibrio fibrisolvens α-amylase B. Description: Inhibitory specificity: kinetic analysis. The data set is classed as biochemical. The settings on record: up to 1 μM. Here is the method: as §1, §2
The target in data set [6] is T3, Green coffee bean α-galactosidase (Coffea arabica, UniProt Q42656).
T3 construct: Green coffee bean α-galactosidase; from tissue; host or cells: green coffee beans
Description: Inhibitory specificity: kinetic analysis. Type of data set: biochemical. The settings on record: up to 1 μM. As for the experimental part:
as §1, §2

Data set [7] has as its target Human maltase-glucoamylase (Homo sapiens, UniProt O43451). Put plainly: Inhibitory specificity: kinetic analysis. Type of data set: biochemical. The settings on record: up to 1 μM. Here is the method:
as §1, §2

A further data set concerns the target T4, Jack bean α-mannosidase (Canavalia ensiformis, UniProt C0HJB3).
T4 construct: Jack bean α-mannosidase; from tissue; host or cells: jack bean
T4 sequence (C0HJB3 1-981): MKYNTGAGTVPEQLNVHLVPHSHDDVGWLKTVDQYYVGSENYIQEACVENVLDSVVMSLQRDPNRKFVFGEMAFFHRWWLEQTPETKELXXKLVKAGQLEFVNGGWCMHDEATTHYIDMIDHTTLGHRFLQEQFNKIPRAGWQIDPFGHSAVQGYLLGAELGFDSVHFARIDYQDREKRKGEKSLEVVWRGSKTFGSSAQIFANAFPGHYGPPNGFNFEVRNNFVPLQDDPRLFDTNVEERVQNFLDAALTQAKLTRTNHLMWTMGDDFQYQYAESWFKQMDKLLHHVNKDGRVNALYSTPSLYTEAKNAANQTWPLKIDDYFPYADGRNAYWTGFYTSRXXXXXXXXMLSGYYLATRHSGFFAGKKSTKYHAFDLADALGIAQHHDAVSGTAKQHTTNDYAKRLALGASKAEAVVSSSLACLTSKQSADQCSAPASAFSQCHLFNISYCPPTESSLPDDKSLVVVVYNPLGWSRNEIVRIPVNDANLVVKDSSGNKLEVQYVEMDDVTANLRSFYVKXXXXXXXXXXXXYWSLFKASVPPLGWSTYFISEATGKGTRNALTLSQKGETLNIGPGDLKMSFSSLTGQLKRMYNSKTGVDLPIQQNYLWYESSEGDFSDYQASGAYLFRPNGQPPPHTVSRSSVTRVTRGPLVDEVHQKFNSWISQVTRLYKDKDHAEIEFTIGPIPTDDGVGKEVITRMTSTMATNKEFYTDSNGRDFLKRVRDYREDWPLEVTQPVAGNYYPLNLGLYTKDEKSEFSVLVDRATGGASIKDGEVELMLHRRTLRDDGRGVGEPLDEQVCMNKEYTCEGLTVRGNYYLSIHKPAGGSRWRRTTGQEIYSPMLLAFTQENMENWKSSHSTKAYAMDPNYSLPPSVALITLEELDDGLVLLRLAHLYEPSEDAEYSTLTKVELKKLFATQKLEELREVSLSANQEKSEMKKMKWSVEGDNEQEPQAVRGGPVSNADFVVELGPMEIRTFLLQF
Put plainly: Inhibitory specificity: kinetic analysis. Type of data set: biochemical. As to conditions: up to 1 μM. As for the experimental part: as §1, §2

Data set [8] concerns the target Roseburia inulinivorans α-amylase A. Put plainly: Inhibitory specificity: kinetic analysis. As to conditions: up to 1 μM. Type of data set: biochemical. Here is the method: as §1, §2
Data set [9] concerns trypsin, chymotrypsin, proteinase K, and Lys-C.
For data set [10] the following is noted: 11M HCl at 37° C. for four days, HPLC.
Description: The sample was diluted and neutralized before desalting by C18 reverse phase chromatography. The peptide mixture was injected into an Agilent™ 6460 QQQ LC/MS mass spectrometer. Elution and MS/MS analysis was carried out over a 40-minute period. A script was written to predict all possible fragments for the helianthamide sequence in the event of random hydrolysis and was used to analyze the resulting MS and MS/MS peaks.
Intact peptide was incubated in 11M HCl at 37° C. for four days.
Data set [11] concerns the target T2, human pancreatic α-amylase (HPA). As to conditions: from parallel screen; read-out: Ki against HPA; cited from earlier work.

Entries after “also recorded” stand apart in the source; their conditions may differ. Bridges are numbered along the chain shown (N, C = ends).

T3 sequence (Q42656 16-378): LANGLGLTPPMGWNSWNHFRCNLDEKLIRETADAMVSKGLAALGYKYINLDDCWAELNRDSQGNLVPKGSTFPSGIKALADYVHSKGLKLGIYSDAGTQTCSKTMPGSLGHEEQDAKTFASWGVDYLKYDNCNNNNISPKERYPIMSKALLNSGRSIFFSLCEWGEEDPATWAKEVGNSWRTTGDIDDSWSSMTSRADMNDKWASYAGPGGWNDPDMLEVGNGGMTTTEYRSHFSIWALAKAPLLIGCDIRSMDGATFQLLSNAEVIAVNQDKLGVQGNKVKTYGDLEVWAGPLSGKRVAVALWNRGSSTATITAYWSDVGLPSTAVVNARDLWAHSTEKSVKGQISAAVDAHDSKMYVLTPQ
Human maltase-glucoamylase, sequence (O43451 whole entry): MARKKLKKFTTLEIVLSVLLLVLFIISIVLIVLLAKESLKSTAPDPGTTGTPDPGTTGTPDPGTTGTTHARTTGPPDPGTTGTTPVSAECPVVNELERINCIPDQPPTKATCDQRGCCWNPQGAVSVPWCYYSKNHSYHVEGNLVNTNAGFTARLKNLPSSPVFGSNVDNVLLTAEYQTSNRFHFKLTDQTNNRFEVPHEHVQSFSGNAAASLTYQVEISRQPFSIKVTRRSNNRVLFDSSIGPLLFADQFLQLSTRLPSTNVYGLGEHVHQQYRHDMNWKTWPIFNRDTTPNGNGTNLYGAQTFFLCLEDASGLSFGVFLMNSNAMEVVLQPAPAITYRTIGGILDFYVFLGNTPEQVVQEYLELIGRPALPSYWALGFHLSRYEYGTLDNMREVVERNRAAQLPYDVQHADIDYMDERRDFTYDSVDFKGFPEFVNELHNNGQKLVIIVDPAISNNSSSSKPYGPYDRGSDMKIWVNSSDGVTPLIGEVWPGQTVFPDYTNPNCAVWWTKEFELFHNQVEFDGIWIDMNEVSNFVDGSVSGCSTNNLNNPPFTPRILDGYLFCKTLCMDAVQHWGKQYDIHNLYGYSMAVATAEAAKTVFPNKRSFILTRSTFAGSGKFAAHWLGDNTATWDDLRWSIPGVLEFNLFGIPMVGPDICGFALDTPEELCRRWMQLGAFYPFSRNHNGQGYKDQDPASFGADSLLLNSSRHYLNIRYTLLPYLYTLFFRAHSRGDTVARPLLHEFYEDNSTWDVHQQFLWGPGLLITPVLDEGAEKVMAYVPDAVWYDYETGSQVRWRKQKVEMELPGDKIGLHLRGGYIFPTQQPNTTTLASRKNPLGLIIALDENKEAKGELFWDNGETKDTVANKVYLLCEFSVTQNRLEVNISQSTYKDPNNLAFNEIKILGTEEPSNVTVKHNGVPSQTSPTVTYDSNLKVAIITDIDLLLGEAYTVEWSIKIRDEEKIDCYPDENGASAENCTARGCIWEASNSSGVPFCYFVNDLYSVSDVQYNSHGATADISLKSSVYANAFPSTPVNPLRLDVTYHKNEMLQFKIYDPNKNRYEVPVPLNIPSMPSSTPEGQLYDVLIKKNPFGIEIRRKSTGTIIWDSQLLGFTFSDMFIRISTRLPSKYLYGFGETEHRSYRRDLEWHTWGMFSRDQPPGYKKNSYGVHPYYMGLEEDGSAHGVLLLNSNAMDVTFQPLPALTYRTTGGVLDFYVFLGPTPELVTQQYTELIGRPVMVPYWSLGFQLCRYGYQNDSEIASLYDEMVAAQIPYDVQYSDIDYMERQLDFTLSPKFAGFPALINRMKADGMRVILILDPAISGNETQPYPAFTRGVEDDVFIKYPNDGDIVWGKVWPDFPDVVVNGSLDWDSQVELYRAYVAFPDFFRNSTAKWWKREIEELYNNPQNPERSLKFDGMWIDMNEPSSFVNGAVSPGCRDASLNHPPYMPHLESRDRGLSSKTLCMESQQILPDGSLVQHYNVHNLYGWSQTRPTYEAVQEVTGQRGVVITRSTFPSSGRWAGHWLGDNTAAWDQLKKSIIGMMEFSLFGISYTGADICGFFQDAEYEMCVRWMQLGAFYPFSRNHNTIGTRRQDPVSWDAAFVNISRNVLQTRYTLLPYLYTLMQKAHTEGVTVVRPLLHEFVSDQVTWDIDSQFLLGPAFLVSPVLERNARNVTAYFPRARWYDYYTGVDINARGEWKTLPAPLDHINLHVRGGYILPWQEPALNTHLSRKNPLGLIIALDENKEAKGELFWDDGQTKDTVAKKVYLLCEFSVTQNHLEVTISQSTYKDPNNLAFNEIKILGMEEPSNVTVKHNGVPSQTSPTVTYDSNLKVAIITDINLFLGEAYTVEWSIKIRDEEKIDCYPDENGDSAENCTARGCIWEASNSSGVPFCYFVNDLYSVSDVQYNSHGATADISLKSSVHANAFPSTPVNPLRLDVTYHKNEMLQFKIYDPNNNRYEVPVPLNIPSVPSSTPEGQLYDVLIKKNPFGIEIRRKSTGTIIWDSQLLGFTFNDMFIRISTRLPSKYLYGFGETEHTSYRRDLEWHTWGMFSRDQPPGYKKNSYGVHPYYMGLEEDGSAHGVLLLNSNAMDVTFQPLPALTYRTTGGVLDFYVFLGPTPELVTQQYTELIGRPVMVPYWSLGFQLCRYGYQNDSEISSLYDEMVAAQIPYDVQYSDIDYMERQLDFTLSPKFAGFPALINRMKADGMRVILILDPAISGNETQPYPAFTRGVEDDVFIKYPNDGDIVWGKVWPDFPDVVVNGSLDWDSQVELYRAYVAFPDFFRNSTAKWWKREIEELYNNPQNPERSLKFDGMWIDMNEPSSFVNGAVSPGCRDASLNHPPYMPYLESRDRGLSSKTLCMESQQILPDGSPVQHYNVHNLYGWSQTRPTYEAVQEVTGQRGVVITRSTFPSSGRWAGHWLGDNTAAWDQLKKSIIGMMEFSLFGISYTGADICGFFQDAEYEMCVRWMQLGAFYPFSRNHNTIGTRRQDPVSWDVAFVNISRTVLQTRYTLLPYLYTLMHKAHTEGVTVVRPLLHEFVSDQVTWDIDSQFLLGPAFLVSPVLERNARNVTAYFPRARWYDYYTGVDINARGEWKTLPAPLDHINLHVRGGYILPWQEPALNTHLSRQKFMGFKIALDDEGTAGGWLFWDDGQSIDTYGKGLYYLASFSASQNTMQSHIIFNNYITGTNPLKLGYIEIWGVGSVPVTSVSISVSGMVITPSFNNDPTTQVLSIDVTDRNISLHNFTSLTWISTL
Bacillus licheniformis α-amylase, sequence (P06278 30-512): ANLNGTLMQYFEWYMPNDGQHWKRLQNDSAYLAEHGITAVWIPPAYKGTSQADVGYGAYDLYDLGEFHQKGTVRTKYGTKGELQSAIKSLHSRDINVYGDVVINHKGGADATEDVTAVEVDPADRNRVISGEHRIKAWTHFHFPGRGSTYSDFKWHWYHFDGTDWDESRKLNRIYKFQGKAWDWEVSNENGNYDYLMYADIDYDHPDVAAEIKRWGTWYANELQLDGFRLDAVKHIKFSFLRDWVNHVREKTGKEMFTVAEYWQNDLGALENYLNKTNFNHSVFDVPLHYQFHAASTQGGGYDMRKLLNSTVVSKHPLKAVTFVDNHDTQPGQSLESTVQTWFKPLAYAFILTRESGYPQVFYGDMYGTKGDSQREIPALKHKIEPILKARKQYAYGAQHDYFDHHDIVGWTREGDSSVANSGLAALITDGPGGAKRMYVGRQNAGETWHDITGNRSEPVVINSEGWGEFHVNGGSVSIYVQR

As for “Ac-CYIYHGVSGIC-NH2 (disulfide 1-11 (inferred); listed as Stichodactyla helianthus) [truncated peptide]”, the “Inhibitory Activity” value with mammalian alpha-amylase worked out at 30 µM.

For the substance “Ac-YIYH-NH2 (listed as Stichodactyla helianthus) [truncated peptide, Ac represents the acetyl functional group]”, in the data set with mammalian alpha-amylase, the “mammalian alpha-amylase inhibitory activity (in words)” value was “did not have detectable” and the “Inhibitory Activity” value is listed as “no inhibition detected”.

As to “Ac-YIYHGVSGI-NH2 (listed as Stichodactyla helianthus) [truncated peptide]”, the “Inhibitory Activity” value with mammalian alpha-amylase is 25 µM.

Turning to “ESGNSCYIYHGVSGICKASCAEDEKAMAGMGVCEGHLCCYKTPW (listed as Stichodactyla helianthus) [helianthamide]”, the entries for the “Ki / inhibition constant estimated in preliminary tests” value in data set [1] and in data set [1] (listed as Helianthamide) were “low-nM” and “low nanomolar; also recorded: low nano-molar”, respectively. In data set [1] (preliminary tests, natural material), the “mode of HPA inhibition” value is recorded as “reversible competitive inhibition”. Also, the Ki (on Almond β-glucosidase; in [2]; in data set [3]; in data set [4]; in [5]; in data set [6]) was over 1000 nM in each case. For the same substance, the inhibition constant Ki (in data set [7]; with Jack bean α-mannosidase; in data set [8]) was over 1000 nM each time. The resistance to proteolysis result in data set [9] is “resistant to proteolysis”. In [10], the “intact peptide remaining after acid incubation” value is given as “a large proportion of intact peptide remained”.

Turning to Montbretin A, the Ki – broadly, the dissociation constant of the complex between target and ligand, obtained from inhibition or displacement – in data set [11] is 8 nM.
